From US20200190192A1 (SUTRO BIOPHARMA, published 2020)
Substitutions are numbered along the chain they refer to.

T1: cynomolgus Tim-3 expressed on CHO cells (cynomolgus monkey)
T1 construct: also called cTim-3; Cyno Tim-3 (CHO)
T1 chain: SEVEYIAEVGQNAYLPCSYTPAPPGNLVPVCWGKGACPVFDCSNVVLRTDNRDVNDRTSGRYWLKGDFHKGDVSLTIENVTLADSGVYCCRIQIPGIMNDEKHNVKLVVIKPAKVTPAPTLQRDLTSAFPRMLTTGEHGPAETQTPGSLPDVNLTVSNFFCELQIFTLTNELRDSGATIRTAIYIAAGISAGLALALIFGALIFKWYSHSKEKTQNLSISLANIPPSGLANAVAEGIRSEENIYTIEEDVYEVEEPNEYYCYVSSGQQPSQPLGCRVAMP

B1: h22E11-VK1-39 × h22E11-VH1-69 (antibody, V domains shown)
VH: QVQLVQSGAEVKKPGSSVKVSCKVSGFSLTSYGVHWVRQAPGQGLEWLVVIWSDGSTTYNQKFQGRVTITKDESTSTVYMELSSLRSEDTAVYYCARQGGYRYDDAMDYWGQGTLVTVSS
VL: DIQLTQSPSSLSASVGDRVTITCKASQSVDYDGNSYVNWYQQKPGKAPKLLIYAASNLESGVPSRFSGSGSGTDFTLTISSLQPEDFATYYCQQSNEDPYTFGQGTKVEIK
notes: Humanized m22E11
B2: h22E11-VK1-39 × h22E11-VH3-23 (antibody, V domains shown)
VH: EVQLLESGGGLVQPGGSLRLSCAVSGFSLTSYGVHWVRQAPGKGLEWLVVIWSDGSTTYNDSVKGRFTISKDNSKNTVYLQMNSLRAEDTAVYYCARQGGYRYDDAMDYWGQGTLVTVSS
VL: B1 VL
notes: Humanized m22E11
B3: h22E11-VK1-39 × h22E11-VH5-51 (antibody, V domains shown)
VH: EVQLVQSGAEVKKPGESLKISCKVSGFSLTSYGVHWVRQMPGKGLEWLVVIWSDGSTTYNPSFQGQVTISKDKSISTVYLQWSSLKASDTAMYYCARQGGYRYDDAMDYWGQGTLVTVSS
VL: B1 VL
notes: Humanized m22E11
B4: h22E11-VK1-39 × h22E11-VH4-30-4 (antibody, V domains shown)
VH: QVQLQESGPGLVKPSQTLSLTCTVSGFSLTSYGVHWIRQPPGKGLEWLVVIWSDGSTTYNPSLKSRVTISKDTSKNQVSLKLSSVTAADTAVYYCARQGGYRYDDAMDYWGQGTLVTVSS
VL: B1 VL
notes: Humanized m22E11
B5: h22E11-VK3-11 × h22E11-VH1-69 (antibody, V domains shown)
VH: B1 VH
VL: EIVLTQSPATLSLSPGERATLSCKASQSVDYDGNSYVNWYQQKPGQAPRLLIYAASNLESGIPARFSGSGSGTDFTLTISSLEPEDFAVYYCQQSNEDPYTFGQGTKVEIK
notes: Humanized m22E11
B6: h22E11-5-IgG-LC × h22E11-VH1-69 (antibody, V domains shown)
VH: B1 VH
VL: B5 VL with A9G, N38A, A64D, S81R
notes: Humanized m22E11
B7: h22E11-VK1-39 × h22E11-5-IgG-HC (antibody, V domains shown)
VH: B2 VH with L5V, D61S, S62A, V63L, G65S, S74A, T77S
VL: B1 VL
notes: Humanized m22E11
B8: h22E11-VK4-1 × h22E11-VH4-30-4 (antibody, V domains shown)
VH: B4 VH
VL: DIVLTQSPDSLAVSLGERATINCKASQSVDYDGNSYVNWYQQKPGQPPKLLIYAASNLESGVPDRFSGSGSGTDFTLTISSLQAEDVAVYYCQQSNEDPYTFGQGTKVEIK
notes: Humanized m22E11
B9: h22E11-VK3-11 × h22E11-VH4-30-4 (antibody, V domains shown)
VH: B4 VH
VL: B5 VL
notes: Humanized m22E11
B10: h22E11-VK4-1 × h22E11-VH5-51 (antibody, V domains shown)
VH: B3 VH
VL: B8 VL
notes: Humanized m22E11
B11: h22E11-VK4-1 × h22E11-5-IgG-HC (antibody, V domains shown)
VH: B2 VH with L5V, D61S, S62A, V63L, G65S, S74A, T77S
VL: B8 VL
notes: Humanized m22E11
B12: h22E11-5-IgG-LC × h22E11-VH4-30-4 (antibody, V domains shown)
VH: B4 VH
VL: B5 VL with A9G, N38A, A64D, S81R
notes: Humanized m22E11
B13: h22E11-VK3-11 × h22E11-VH3-23 (antibody, V domains shown)
VH: B2 VH
VL: B5 VL
notes: Humanized m22E11
B14: h22E11-VK3-11 × h22E11-VH5-51 (antibody, V domains shown)
VH: B3 VH
VL: B5 VL
notes: Humanized m22E11
B15: h22E11-5-IgG-LC × h22E11-VH3-23 (antibody, V domains shown)
VH: B2 VH
VL: B5 VL with A9G, N38A, A64D, S81R
notes: Humanized m22E11
B16: h22E11-5-IgG-LC × h22E11-VH5-51 (antibody, V domains shown)
VH: B3 VH
VL: B5 VL with A9G, N38A, A64D, S81R
notes: Humanized m22E11

Each binder was assayed against T2, recombinant human Tim-3-Fc (R&D Systems, 2365-TM) (human, UniProt Q8TDQ0 22-202, biotinylated in the Galectin-9 competition ELISA (sites not given)) (assay: SPR Biacore, human Tim-3 Fc;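 note: antibodies captured on an anti-FLAG sensor surface, Tim-3-Fc flowed over as analyte at 25 °C in HBS-EP+ buffer, rates fit with a 1:1 Langmuir model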).
T2 construct: Bought protein; also called huTim-3-Fc; biotinylated Tim-3-Fc; not shown: Fc of the bought fusion protein

Row | koff [s⁻¹] | Binder
1 | 0.00094 | B1
2 | 0.00094 | B2
3 | 0.000947 | B3
4 | 0.00126 | B4
5 | 0.000867 | B5
6 | 0.000991 | B6
7 | 0.00102 | B7
8 | 0.00119 | B8
9 | 0.00107 | B9
10 | 0.000881 | B10
11 | 0.000973 | B11
12 | 0.00117 | B12
13 | 0.000934 | B13
14 | 0.000875 | B14
15 | 0.000895 | B15
16 | 0.0011 | B16

Biological target: T1, cynomolgus Tim-3 expressed on CHO cells
Experiment: flow cytometry, CHO-cyno Tim-3 cells

Row | Kd [nM] | Binder
17 | 1.7 | B1
18 | 4.5 | B2
19 | 2.1 | B3
20 | 5.5 | B4
21 | 2.8 | B5
22 | 3 | B6
23 | 4.7 | B7
24 | 5 | B8
25 | 4.5 | B9
26 | 1.9 | B10
27 | 5.3 | B11
28 | 6.9 | B13
29 | 2.7 | B14
30 | 13.2 | B15

Each binder was assayed against T3, human Tim-3 expressed on the cell surface (human, UniProt Q8TDQ0 22-301) (assay: flow cytometry, CHO-human Tim-3 cells;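 note: antibodies bound on ice for 60 min, detected by PE anti-human IgG Fc secondary, mean fluorescence intensity fit to one-site specific binding with Hill slope, parental CHO cells as nonspecific control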).
T3 construct: also called hTim-3; Human Tim-3 (CHO)

Row | Kd [nM] | Binder
31 | 0.6 | B1
32 | 0.5 | B2
33 | 0.4 | B3
34 | 0.7 | B4
35 | 1 | B5
36 | 0.9 | B6
37 | 0.6 | B7
38 | 1.1 | B8
39 | 1 | B9
40 | 0.8 | B10
41 | 0.8 | B11
42 | 3.7 | B12
43 | 0.7 | B13
44 | 0.8 | B14
45 | 0.8 | B15

Each binder was assayed against T2, recombinant human Tim-3-Fc (R&D …) (assay: SPR Biacore, human Tim-3 Fc; KD estimated).

Row | Kd [nM] | Binder
46 | 6 | B1
47 | 5.6 | B2
48 | 5.3 | B3
49 | 9.1 | B4
50 | 4.9 | B5
51 | 4.9 | B6
52 | 6.2 | B7
53 | 8.1 | B8
54 | 7.2 | B9
55 | 4.8 | B10
56 | 5.7 | B11
57 | 7.6 | B12
58 | 5.3 | B13
59 | 4.3 | B14
60 | 5.3 | B15
61 | 5 | B16

Each binder was assayed against T3, human Tim-3 expressed on the cell … (assay: flow cytometry, activated human CD4+ T cells).

Row | Kd [nM] | Binder
62 | 2.6 | B1
63 | 1.1 | B2
64 | 0.9 | B3
65 | 4 | B5
66 | 1.6 | B6
67 | 2.4 | B7
68 | 5.7 | B8
69 | 7.1 | B9
70 | 0.6 | B10
71 | 1.4 | B11
72 | 0.9 | B13
73 | 0.6 | B14
74 | 1.2 | B15
